Assay results taken from patent US20130280735A1.

Biological target: ICAM-1 (COS cell transfectants) (UniProt P05362)
Test: FACS of COS transfectants, one transfection out of at least five attempts

UniProt P05362, sequence (P05362 28-532 limits assumed): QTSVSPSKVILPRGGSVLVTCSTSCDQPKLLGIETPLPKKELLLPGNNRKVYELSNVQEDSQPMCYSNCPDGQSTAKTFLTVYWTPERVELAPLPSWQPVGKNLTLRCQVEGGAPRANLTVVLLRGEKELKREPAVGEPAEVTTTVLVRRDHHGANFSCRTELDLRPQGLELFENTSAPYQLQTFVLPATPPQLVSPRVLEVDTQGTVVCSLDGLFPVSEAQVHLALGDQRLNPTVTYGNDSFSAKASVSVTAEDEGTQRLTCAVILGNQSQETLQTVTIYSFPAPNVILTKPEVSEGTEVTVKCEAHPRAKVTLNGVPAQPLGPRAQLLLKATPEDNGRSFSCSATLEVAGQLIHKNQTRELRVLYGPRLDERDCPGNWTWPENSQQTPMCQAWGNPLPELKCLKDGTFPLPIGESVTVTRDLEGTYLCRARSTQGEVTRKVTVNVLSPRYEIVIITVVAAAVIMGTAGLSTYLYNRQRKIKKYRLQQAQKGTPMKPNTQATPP

% binding: 36%
Substance: Fc-CD33Rg (from UniProt P20138 18-259) (Fc fusion)
